Data from US12297294B2, “Cortistatin analogues for the treatment of inflammatory and/or immune diseases” (BCN PEPTIDES, S.A., priority 2013, dated 2025).
Where a SMILES comes first, the peptide text is derived from it. Bridges are numbered along the chain shown (N, C = ends). [ ]: non-standard residue; d: D form. The star is where a group is joined. Phe(2,4,6-Me3) = Cc1cc(C)c(C[C@H](N)C(=O)O)c(C)c1; Phe(3,5-F2) = N[C@@H](Cc1cc(F)cc(F)c1)C(=O)O; Myristoyl = CCCCCCCCCCCCCC(=O)*; Octanoyl = CCCCCCCC(=O)*

B1: Compound 5: Octanoyl-L-Pro-c[L-Cys-L-Lys-L-Asn-L-Msa-L-Phe-D-Trp-L-Lys-L-Thr-L-Phe-L-Thr-L-Ser-L-Cys]-OH (peptide)
peptide: Octanoyl-PCKN[Phe(2,4,6-Me3)]F[dW]KTFTSC-OH
modifications: disulfide 2-13
SMILES: CCCCCCCC(=O)N1CCC[C@H]1C(=O)N[C@H]1CSSC[C@@H](C(=O)O)NC(=O)[C@H](CO)NC(=O)[C@H]([C@@H](C)O)NC(=O)[C@H](Cc2ccccc2)NC(=O)[C@H]([C@@H](C)O)NC(=O)[C@H](CCCCN)NC(=O)[C@@H](Cc2c[nH]c3ccccc23)NC(=O)[C@H](Cc2ccccc2)NC(=O)[C@H](Cc2c(C)cc(C)cc2C)NC(=O)[C@H](CC(N)=O)NC(=O)[C@H](CCCCN)NC1=O
B2: Compound 10: Myristoyl-L-Asp-L-Arg-L-Met-L-Pro-c[L-Cys-L-Arg-L-Asn-L-Msa-L-Phe-L-Trp-L-Lys-L-Thr-L-Phe-L-Thr-L-Ser-L-Cys]-L-Lys-OH (peptide)
peptide: Myristoyl-DRMPCRN[Phe(2,4,6-Me3)]FWKTFTSCK-OH
modifications: disulfide 5-16
SMILES: CCCCCCCCCCCCCC(=O)N[C@@H](CC(=O)O)C(=O)N[C@@H](CCCNC(=N)N)C(=O)N[C@@H](CCSC)C(=O)N1CCC[C@H]1C(=O)N[C@H]1CSSC[C@@H](C(=O)N[C@@H](CCCCN)C(=O)O)NC(=O)[C@H](CO)NC(=O)[C@H]([C@@H](C)O)NC(=O)[C@H](Cc2ccccc2)NC(=O)[C@H]([C@@H](C)O)NC(=O)[C@H](CCCCN)NC(=O)[C@H](Cc2c[nH]c3ccccc23)NC(=O)[C@H](Cc2ccccc2)NC(=O)[C@H](Cc2c(C)cc(C)cc2C)NC(=O)[C@H](CC(N)=O)NC(=O)[C@H](CCCNC(=N)N)NC1=O
B3: Compound 9: H-L-Asp-L-Arg-L-Met-L-Pro-c[L-Cys-L-Arg-L-Asn-L-Msa-L-Phe-L-Trp-L-Lys-L-Thr-L-Phe-L-Thr-L-Ser-L-Cys]-L-Lys-OH (peptide)
peptide: H-DRMPCRN[Phe(2,4,6-Me3)]FWKTFTSCK-OH
modifications: disulfide 5-16
SMILES: CSCC[C@H](NC(=O)[C@H](CCCNC(=N)N)NC(=O)[C@@H](N)CC(=O)O)C(=O)N1CCC[C@H]1C(=O)N[C@H]1CSSC[C@@H](C(=O)N[C@@H](CCCCN)C(=O)O)NC(=O)[C@H](CO)NC(=O)[C@H]([C@@H](C)O)NC(=O)[C@H](Cc2ccccc2)NC(=O)[C@H]([C@@H](C)O)NC(=O)[C@H](CCCCN)NC(=O)[C@H](Cc2c[nH]c3ccccc23)NC(=O)[C@H](Cc2ccccc2)NC(=O)[C@H](Cc2c(C)cc(C)cc2C)NC(=O)[C@H](CC(N)=O)NC(=O)[C@H](CCCNC(=N)N)NC1=O

How the values were obtained:
[1] = test system: acute colitis induced by Dextran sulfate sodium (DSS); test: Experimental model of ulcerative colitis (DSS-induced acute colitis); assay type: in vivo, C57Bl/6 male mice
Protocol: 7-8 week old C57Bl/6 male mice were used. They were given voluntary drinking water with 5% of Dextran sulfate sodium (DSS) from day 0 to day 7 of the study in order to induce acute colitis. Animals in the control group were supplied with normal water. […] CST was used as a reference product. The severity of the colitis was assessed daily using a scale of values from 0 to 4 indicating the clinical disease activity index considering stool consistency, the presence of bloody stools and weight loss. Mice were sacrificed on day 8 of the study and after the necropsy the extent of macroscopic damage was established in the colon using a scale from 0 to 8. […] The average weight of the sick mice's colons was 763 mg, the average weight of the colons of the sick mice treated with CST was 621 mg and that of the colons of the sick mice treated with the new cortistatin analogues was between 614-621 mg, indicating a reduction of the inflammation of the colon.

[2] = Serum stability in 90% human serum at 37° C., RP-HPLC; assay type: in vitro ADME
Protocol: The new compounds were incubated with 90% human serum at 37° C. Aliquots were extracted at different incubation times. Methanol was added to precipitate the proteins from the serum, it was centrifuged and the supernatant was subject to a chromatographic analysis using RP-HPLC (Gradient: 20-80% B in 30 min, B=0.07% TFA in acetonitrile). The disappearance of the initial product was analyzed using the area corresponding to the initial product and half-life time was calculated.

[3] = biological target: T1, somatostatin receptor sstr5 (UniProt P35346 1-364, limits assumed); test: radioligand competition vs 125I-Tyr11-somatostatin 14, CHO-K1 cells expressing sstr5, 0.1 nM to 10 uM
T1 construct: whole, on cells
Protocol: (§1) CHO-K1 cells in which each of the 5 somatostatin receptors (sstr1-sstr5) were expressed independently were used. […] The radioactivity obtained in the absence of somatostatin-14 was considered as the total binding and that obtained in the presence of 1 μM of somatostatin-14 was considered as the non-specific bond. The specific binding was considered as the difference between the complete binding and the non-specific binding.

[4] = biological target: T2, somatostatin receptor sstr1 (UniProt P30872 1-391, limits assumed); test: radioligand competition vs 125I-Tyr11-somatostatin 14, CHO-K1 cells expressing sstr1, 0.1 nM to 10 uM
T2 construct: whole, on cells
Protocol: as §1

[5] = biological target: T3, somatostatin receptor sstr3 (UniProt P32745 1-418, limits assumed); test: radioligand competition vs 125I-Tyr11-somatostatin 14, CHO-K1 cells expressing sstr3, 0.1 nM to 10 uM
T3 construct: whole, on cells
Protocol: as §1

[6] = biological target: T4, somatostatin receptor sstr2 (UniProt P30874 1-369, limits assumed); test: radioligand competition vs 125I-Tyr11-somatostatin 14, CHO-K1 cells expressing sstr2, 0.1 nM to 10 uM
T4 construct: whole, on cells
Protocol: as §1

T1 sequence (P35346 whole entry): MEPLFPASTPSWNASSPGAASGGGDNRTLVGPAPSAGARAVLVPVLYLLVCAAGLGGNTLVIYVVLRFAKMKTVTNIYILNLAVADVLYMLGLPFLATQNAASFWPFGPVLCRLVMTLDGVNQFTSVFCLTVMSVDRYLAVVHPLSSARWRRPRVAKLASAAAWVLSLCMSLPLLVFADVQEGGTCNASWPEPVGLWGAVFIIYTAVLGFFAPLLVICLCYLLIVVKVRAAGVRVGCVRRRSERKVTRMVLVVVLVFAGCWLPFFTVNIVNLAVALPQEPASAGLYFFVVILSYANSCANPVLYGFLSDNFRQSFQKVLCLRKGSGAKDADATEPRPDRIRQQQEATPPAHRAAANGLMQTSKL
T3 sequence (P32745 whole entry): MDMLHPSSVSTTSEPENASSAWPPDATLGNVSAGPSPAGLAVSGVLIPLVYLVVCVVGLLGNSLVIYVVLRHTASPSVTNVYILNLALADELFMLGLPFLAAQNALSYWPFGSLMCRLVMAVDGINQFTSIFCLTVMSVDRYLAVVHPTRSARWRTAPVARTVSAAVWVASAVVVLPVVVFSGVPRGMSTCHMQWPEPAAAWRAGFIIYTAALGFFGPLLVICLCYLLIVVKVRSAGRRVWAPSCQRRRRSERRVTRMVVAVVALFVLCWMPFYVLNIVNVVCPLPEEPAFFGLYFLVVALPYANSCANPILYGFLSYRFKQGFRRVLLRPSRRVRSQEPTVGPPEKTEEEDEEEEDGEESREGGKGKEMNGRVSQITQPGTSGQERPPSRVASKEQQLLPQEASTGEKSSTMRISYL
T4 sequence (P30874 whole entry): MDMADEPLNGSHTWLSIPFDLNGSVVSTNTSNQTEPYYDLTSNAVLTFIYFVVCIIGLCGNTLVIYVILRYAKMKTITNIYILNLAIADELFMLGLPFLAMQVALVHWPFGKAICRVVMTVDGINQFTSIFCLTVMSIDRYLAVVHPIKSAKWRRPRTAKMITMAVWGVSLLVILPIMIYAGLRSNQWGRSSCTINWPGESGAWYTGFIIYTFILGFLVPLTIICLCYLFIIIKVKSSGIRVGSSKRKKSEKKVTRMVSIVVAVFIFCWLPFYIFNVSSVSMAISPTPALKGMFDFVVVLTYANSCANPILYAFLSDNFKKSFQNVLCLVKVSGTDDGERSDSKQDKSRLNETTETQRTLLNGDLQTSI
T2 sequence (P30872 whole entry): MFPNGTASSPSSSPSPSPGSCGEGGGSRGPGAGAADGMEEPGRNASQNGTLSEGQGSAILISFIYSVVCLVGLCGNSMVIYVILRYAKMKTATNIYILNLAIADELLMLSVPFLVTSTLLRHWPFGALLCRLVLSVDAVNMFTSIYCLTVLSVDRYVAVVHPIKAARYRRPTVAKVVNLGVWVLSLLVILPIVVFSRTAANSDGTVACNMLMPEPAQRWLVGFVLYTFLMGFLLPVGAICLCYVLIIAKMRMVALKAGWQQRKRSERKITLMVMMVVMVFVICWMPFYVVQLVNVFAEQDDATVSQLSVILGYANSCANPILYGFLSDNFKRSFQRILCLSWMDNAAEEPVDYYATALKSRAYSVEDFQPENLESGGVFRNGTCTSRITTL

Row | Molecule | clinical disease activity index (0-4) ([1]; 5% DSS, 0.4 mg/Kg s.c. days 1, 2 and 3, diseased group 3.7) | average weight of colon ([1]; necropsy day 8, sick mice 763 mg) [mg] | macroscopic grade of colitis (0-8) ([1]; necropsy day 8, sick mice 6.6) | half-life [2] [min] | percentage of inhibition of specific binding [3] [%] | percentage of inhibition of specific binding [4] [%] | percentage of inhibition of specific binding [5] [%] | percentage of inhibition of specific binding [6] [%]
1 | C[C@@H](O)[C@@H]1NC(=O)[C@H](CCCCN)NC(=O)[C@H](Cc2c[nH]c3ccccc23)NC(=O)[C@H](Cc2ccccc2)NC(=O)[C@H](Cc2ccccc2)NC(=O)[C@H](CC(N)=O)NC(=O)[C@H](CCCCN)NC(=O)[C@@H](NC(=O)[C@@H]2CCCN2)CSSC[C@@H](C(=O)N[C@@H](CCCCN)C(=O)O)NC(=O)[C@H](CO)NC(=O)[C@H](CO)NC(=O)[C@H](Cc2ccccc2)NC1=O [cortistatin] (H-PCKNFFWKTFSSCK-OH; disulfide 2-13) | 1-1.5 | 621 | 0.87 | 2 |  |  |  | 
2 | H-PCKN[Phe(3,5-F2)]FWKT[Phe(2,4,6-Me3)]SSCK-NH2 (disulfide 2-13) |  |  |  |  | > 50 | > 50 | > 50 | > 50
3 | B1 |  |  |  |  | > 50 | > 50 | > 50 | > 50
4 | B2 |  |  |  |  | > 50 | > 50 | > 50 | > 50
5 | B3 |  |  |  |  | > 50 | > 50 | > 50 | > 50
